Laboratory results from patent US20120090043A1, “TARGETS FOR RETROVIRUS ASSOCIATED DISEASES” (priority 2009, published 2012).

B1: MYEF2: human host interactor protein, Gene ID 50804, expressed from transfected ORF vector (protein)
chain: MADANKAEVPGATGGDSPHLQPAEPPGEPRREPHPAEAEKQQPQHSSSSNGVKMENDESAKEEKSDLKEKSTGSKKANRFHPYSKDKNSGAGEKKGPNRNRVFISNIPYDMKWQAIKDLMREKVGEVTYVELFKDAEGKSRGCGVVEFKDEEFVKKALETMNKYDLSGRPLNIKEDPDGENARRALQRTGGSFPGGHVPDMGSGLMNLPPSILNNPNIPPEVISNLQAGRLGSTIFVANLDFKVGWKKLKEVFSIAGTVKRADIKEDKDGKSRGMGTVTFEQAIEAVQAISMFNGQFLFDRPMHVKMDDKSVPHEEYRSHDGKTPQLPRGLGGIGMGLGPGGQPISASQLNIGGVMGNLGPGGMGMDGPGFGGMNRIGGGIGFGGLEAMNSMGGFGGVGRMGELYRGAMTSSMERDFGRGDIGINQGFGDSFGRLGSAMIGGFAGRIGSSNMGPVGSGISGGMGSMNSVTGGMGMGLDRMSSSFDRMGPGIGAILERSIDMDRGFLSGPMGSGMRERIGSKGNQIFVRNLPFDLTWQKLKEKFSQCGHVMFAEIKMENGKSKGCGTVRFDSPESAEKACRIMNGIKISGREIDVRLDRNA
B2: LENG1: human host interactor protein, Gene ID 79165, expressed from transfected ORF vector (protein)
chain: MNILPKKSWHVRNKDNVARVRRDEAQAREEEKERERRVLLAQQEARTEFLRKKARHQNSLPELEAAEAGAPGSGPVDLFRELLEEGKGVIRGNKEYKEEKRQEKERQEKALGILTYLGQSAAEAQTQPPWYQLPPGRGGPPPGPAPDEKIKSRLDPLREMQKHLGKKRQHGGDEGSRSRKEKEGSEKQRPKEPPSLDQLRAERLRREAAERSRAEALLARVQGRALQEGQPEEDETDDRRRRYNSQFNPQLARRPRQQDPHLTH
B3: KLC3: human host interactor protein, Gene ID 147700, expressed from transfected ORF vector (protein)
chain: MSVQVAAPGSAGLGPERLSPEELVRQTRQVVQGLEALRAEHHGLAGHLAEALAGQGPAAGLEMLEEKQQVVSHSLEAIELGLGEAQVLLALSAHVGALEAEKQRLRSQARRLAQENVWLREELEETQRRLRASEESVAQLEEEKRHLEFLGQLRQYDPPAESQQSESPPRRDSLASLFPSEEEERKGPEAAGAAAAQQGGYEIPARLRTLHNLVIQYAGQGRYEVAVPLCRQALEDLERSSGHCHPDVATMLNILALVYRDQNKYKEATDLLHDALQIREQTLGPEHPAVAATLNNLAVLYGKRGRYREAEPLCQRALEIREKVLGADHPDVAKQLNNLALLCQNQGKFEDVERHYARALSIYEALGGPHDPNVAKTKNNLASAYLKQNKYQQAEELYKEILHKEDLPAPLGAPNTGTAGDAEQALRRSSSLSKIRESIRRGSEKLVSRLRGEAAAGAAGMKRAMSLNTLNVDAPRAPGTQFPSWHLDKAPRTLSASTQDLSPH
B4: MAD1L1: human host interactor protein, Gene ID 8379, expressed from transfected ORF vector (protein)
chain: MEDLGENTMVLSTLRSLNNFISQRVEGGSGLDISTSAPGSLQMQYQQSMQLEERAEQIRSKSHLIQVEREKMQMELSHKRARVELERAASTSARNYEREVDRNQELLTRIRQLQEREAGAEEKMQEQLERNRQCQQNLDAASKRLREKEDSLAQAGETINALKGRISELQWSVMDQEMRVKRLESEKQELQEQLDLQHKKCQEANQKIQELQASQEARADHEQQIKDLEQKLSLQEQDAAIVKNMKSELVRLPRLERELKQLREESAHLREMRETNGLLQEELEGLQRKLGRQEKMQETLVGLELENERLLAKLQSWERLDQTMGLSIRTPEDLSRFVVELQQRELALKDKNSAVTSSARGLEKARQQLQEELRQVSGQLLEERKKRETHEALARRLQKRVLLLTKERDGMRAILGSYDSELTPAEYSPQLTRRMREAEDMVQKVHSHSAEMEAQLSQALEELGGQKQRADMLEMELKMLKSQSSSAEQSFLFSREEADTLRLKVEELEGERSRLEEEKRMLEAQLERRALQGDYDQSRTKVLHMSLNPTSVARQRLREDHSQLQAECERLRGLLRAMERGGTVPADLEAAAASLPSSKEVAELKKQVESAELKNQRLKEVFQTKIQEFRKACYTLTGYQIDITTENQYRLTSLYAEHPGDCLIFKATSPSGSKMQLLETEFSHTVGELIEVHLRRQDSIPAFLSSLTLELFSRQTVA
B5: NEFL: human host interactor protein, Gene ID 4747, expressed from transfected ORF vector (protein)
chain: MSSFSYEPYYSTSYKRRYVETPRVHISSVRSGYSTARSAYSSYSAPVSSSLSVRRSYSSSSGSLMPSLENLDLSQVAAISNDLKSIRTQEKAQLQDLNDRFASFIERVHELEQQNKVLEAELLVLRQKHSEPSRFRALYEQEIRDLRLAAEDATNEKQALQGEREGLEETLRNLQARYEEEVLSREDAEGRLMEARKGADEAALARAELEKRIDSLMDEISFLKKVHEEEIAELQAQIQYAQISVEMDVTKPDLSAALKDIRAQYEKLAAKNMQNAEEWFKSRFTVLTESAAKNTDAVRAAKDEVSESRRLLKAKTLEIEACRGMNEALEKQLQELEDKQNADISAMQDTINKLENELRTTKSEMARYLKEYQDLLNVKMALDIEIAAYRKLLEGEETRLSFTSVGSITSGYSQSSQVFGRSAYGGLQTSSYLMSTRSFPSYYTSHVQEEQIEVEETIEAAKAEEAKDEPPSEGEAEEEEKDKEEAEEEEAAEEEEAAKEESEEAKEEEEGGEGEEGEETKEAEEEEKKVEGAGEEQAAKKKD
B6: RNPS1: human host interactor protein, Gene ID 10921, expressed from transfected ORF vector (protein)
chain: MDLSGVKKKSLLGVKENNKKSSTRAPSPTKRKDRSDEKSKDRSKDKGATKESSEKDRGRDKTRKRRSASSGSSSTRSRSSSTSSSGSSTSTGSSSGSSSSSASSRSGSSSTSRSSSSSSSSGSPSPSRRRHDNRRRSRSKSKPPKRDEKERKRRSPSPKPTKVHIGRLTRNVTKDHIMEIFSTYGKIKMIDMPVERMHPHLSKGYAYVEFENPDEAEKALKHMDGGQIDGQEITATAVLAPWPRPPPRRFSPPRRMLPPPPMWRRSPPRMRRRSRSPRRRSPVRRRSRSPGRRRHRSRSSSNSSR
B7: KIAA1949: human host interactor protein, Gene ID 170954, expressed from transfected ORF vector (protein)
chain: MATIPDWKLQLLARRRQEEASVRGREKAERERLSQMPAWKRGLLERRRAKLGLSPGEPSPVLGTVEAGPPDPDESAVLLEAIGPVHQNRFIRQERQQQQQQQQRSEELLAERKPGPLEARERRPSPGEMRDQSPKGRESREERLSPRETRERRLGIGGAQELSLRPLEARDWRQSPGEVGDRSSRLSEAWKWRLSPGETPERSLRLAESREQSPRRKEVESRLSPGESAYQKLGLTEAHKWRPDSRESQEQSLVQLEATEWRLRSGEERQDYSEECGRKEEWPVPGVAPKETAELSETLTREAQGNSSAGVEAAEQRPVEDGERGMKPTEGWKWTLNSGKAREWTPRDIEAQTQKPEPPESAEKLLESPGVEAGEGEAEKEEAGAQGRPLRALQNCCSVPSPLPPEDAGTGGLRQQEEEAVELQPPPPAPLSPPPPAPTAPQPPGDPLMSRLFYGVKAGPGVGAPRRSGHTFTVNPRRSVPPATPATPTSPATVDAAVPGAGKKRYPTAEEILVLGGYLRLSRSCLAKGSPERHHKQLKISFSETALETTYQYPSESSVLEELGPEPEVPSAPNPPAAQPDDEEDEEELLLLQPELQGGLRTKALIVDESCRR
B8: NIF3L1: human host interactor protein, Gene ID 60491, expressed from transfected ORF vector (protein)
chain: MLSSCVRPVPTTVRFVDSLICNSSRSFMDLKALLSSLNDFASLSFAESWDNVGLLVEPSPPHTVNTLFLTNDLTEEVMEEVLQKKADLILSYHPPIFRPMKRITWNTWKERLVIRALENRVGIYSPHTAYDAAPQGVNNWLAKGLGACTSRPIHPSKAPNYPTEGNHRVEFNVNYTQDLDKVMSAVKGIDGVSVTSFSARTGNEEQTRINLNCTQKALMQVVDFLSRNKQLYQKTEILSLEKPLLLHTGMGRLCTLDESVSLATMIDRIKRHLKLSHIRLALGVGRTLESQVKVVALCAGSGSSVLQGVEADLYLTGEMSHHDTLDAASQGINVILCEHSNTERGFLSDLRDMLDSHLENKINIILSETDRDPLQVV
B9: KIF9: human host interactor protein, Gene ID 64147, expressed from transfected ORF vector (protein)
chain: MGTRKKVHAFVRVKPTDDFAHEMIRYGDDKRSIDIHLKKDIRRGVVNNQQTDWSFKLDGVLHDASQDLVYETVAKDVVSQALDGYNGTIMCYGQTGAGKTYTMMGATENYKHRGILPRALQQVFRMIEERPTHAITVRVSYLEIYNESLFDLLSTLPYVGPSVTPMTIVENPQGVFIKGLSVHLTSQEEDAFSLLFEGETNRIIASHTMNKNSSRSHCIFTIYLEAHSRTLSEEKYITSKINLVDLAGSERLGKSGSEGQVLKEATYINKSLSFLEQAIIALGDQKRDHIPFRQCKLTHALKDSLGGNCNMVLVTNIYGEAAQLEETLSSLRFASRMKLVTTEPAINEKYDAERMVKNLEKELALLKQELAIHDSLTNRTFVTYDPMDEIQIAEINSQVRRYLEGTLDEIDIISLRQIKEVFNQFRVVLSQQEQEVESTLRRKYTLIDRNDFAAISAIQKAGLVDVDGHLVGEPEGQNFGLGVAPFSTKPGKKAKSKKTFKEPLSSLARKEGASSPVNGKDLDYVSTSKTQLVPSSKDGDVKDMLSRDRETSSIEPLPSDSPKEELRPIRPDTPPSKPVAFEEFKNEQGSEINRIFKENKSILNERRKRASETTQHINAIKREIDVTKEALNFQKSLREKQGKYENKGLMIIDEEEFLLILKLKDLKKQYRSEYQDLRDLRAEIQYCQHLVDQCRHRLLMEFDIWYNESFVIPEDMQMALKPGGSIRPGMVPVNRIVSLGEDDQDKFSQLQQRVLPEGPDSISFYNAKVKIEQKHNYLKTMMGLQQAHRK

Test system: HTLV-1 LTR promoter transactivation by HTLV-1 Tax
Experiment: Transactivation assay, HTLV-1 LTR luciferase reporter with HTLV-1 Tax
Type: cell-based
Conditions: HEK293 cells co-transfected with pHTLV1LTR-Luc, HTLV-1 Tax and the human ORF; relative luciferase activity 24 h post-transfection; positive if >=2 or <=0.5 and p<0.05
Excerpt: Twenty-four hours post-transfection, cells were washed three times with PBS, lysed and luciferase activities determined from two independent transfection experiments in triplicate. We computed a paired t-test to assess the difference of the means between samples with and without the human interactor. For a trial to be considered positive, the relative luciferase activities has to be >=2 or <=0.5, and the p-value of the t-test<0.05.
Expression vectors encoding human ORFs and HIV-1 Tat or HTLV-1 Tax proteins were tested in a transactivation reporter assay against reporter plasmids harboring HIV-1 or HTLV-1 viral promoter sequences cloned upstream of the luciferase reporter gene. […] Wherever not expressly specified, constructs used herein were generally made by sub-cloning entry clones from the ORFeome V3.1 into suitable destination vectors.

Molecule	HTLV_LTR transactiv.
B1	2.53 fold change
B2	0.34 fold change
B3	0.31 fold change
B4	0.20 fold change
B5	0.45 fold change
B6	11.12 fold change
B7	0.35 fold change
B8	0.39 fold change
B9	0.37 fold change
